Laboratory results taken from PMC9069674, “Synthesis and Evaluation of Technetium-99m-Labeled pH (Low) Insertion Peptide Variant 7 for Early Diagnosis of MDA-MB-231 Triple-Negative Breast Cancer by Targeting the Tumor Microenvironment” (Frontiers in Oncology, 2022).

Experiments:
[1] = In vitro stability in PBS at room temperature (radiochemical purity by TLC); format: physicochemical; settings: room temperature (25°C), 24 h after labeling, TLC on polyamide layer with acetonitrile
Description: (§1) The radiochemical purity of ^99mTc-pHLIP (Var7) and ^99mTc-kVar7 was determined by thin-layer chromatography (TLC). A thin polyamide layer was used as the stationary phase, and acetonitrile was used as the developing solvent. A sufficient amount of the labeled product was aspirated through a capillary pipette and spotted at the origin of the thin polyamide layer. The thin polyamide layer was air-dried and vertically placed in a test tube with developing solvent. The saturated thin polyamide layer was removed, dried, and placed on the TLC scanner for testing.
(§2) ^99mTc-pHLIP (Var7) and ^99mTc-kVar7 were placed in PBS at room temperature (25°C) and in fresh human serum at 37°C. Samples were taken to test the radiochemical purity at 1, 4, 6, and 24 h after labeling.

[2] = format: in vitro ADME, human
Description: as §1, §2

MDA-MB-231 cells = assay: Binding of labeled peptides to MDA-MB-231 cells at different pH values; format: cell-based, human; settings: n=3
Description: a. When MDA-MB-231 cells grew to more than 90% confluence, they were digested. The cell concentration was adjusted to approximately 1.0 × 10^5 cells/mL, and 1 mL of the cell solution was added to each well of a 12-well plate and cultured overnight in a 37°C cell incubator.
b. The medium was discarded, and the cells were washed with PBS twice. Then, 2 mL of fresh medium and 37 kBq ^99mTc-pHLIP (Var7) or ^99mTc-kVar7 (20-30 μL) were added to each well. We adjusted the pH values of the wells to four levels (pH 7.4, 7.0, 6.5, and 6.0).
c. After culturing for 30, 60, 90, 120, and 180 min, the supernatant was aspirated into a supernatant tube, and each well was washed two times with PBS at the corresponding pH (7.4, 7.0, 6.5, or 6.0). The cleaning solution was also added into the supernatant tube. The cells were digested fully with 0.25% trypsin, and the cell suspension was aspirated into a cell tube and washed twice with PBS. The cleaning solution was also added to the cell tube. A γ counter was applied to measure the radioactivity count of the cell tube (B) and supernatant tube (F). The cell-binding fraction of ^99mTc-pHLIP (Var7) or ^99mTc-kVar7 = B/(B+F) × 100%.

MDA-MB-231 tumors [3] = system: MDA-MB-231 tumors; design: species or system BALB/c nude mice; settings: mouse, in vivo
Description: (§3) Animal experiments were approved by the ethics committee of Qingdao University, and the management of animals followed ethical standards. We built an MDA-MB-231 tumor model using four- to- five-week-old female BALB/c nude mice (Shanghai SLAC Laboratory Animal Co., Ltd, China). To do so, 0.1 mL of a cell suspension (50 µL PBS + 50 µL Matrigel) containing 1 × 10^6 MDA-MB-231 cells was subcutaneously inoculated into the right axilla of each mouse.
When tumor diameters reached 0.8–1.0 cm, 24 tumor-bearing nude mice were selected for an in vivo biodistribution experiment. Each nude mouse was injected with approximately 1480 kBq/200 μL ^99mTc-pHLIP (Var7) or ^99mTc-kVar7 through the tail vein. The mice were sacrificed humanely 1 h, 2 h, 4 h, and 6 h after injection, and their tissues and organs, such as the brain, heart, lung, liver, kidney, stomach, small intestine, blood, muscle, bone, and tumor, were weighed and measured for their radioactivity count. The results are expressed as the percentage of injected dose per gram of tissue (%ID/g).

MDA-MB-231 tumors [4] = format: in vivo, BALB/c nude mice; settings: 1, 2, 4, and 6 h after tail vein injection of about 11.1 MBq/200 μL, n = 3
Description: as §3
When tumor diameters reached 0.8–1.0 cm, six tumor-bearing nude mice were selected for imaging. Each nude mouse was injected with approximately 11.1 MBq/200 μL ^99mTc-pHLIP (Var7) or ^99mTc-kVar7 through the tail vein. The tumor-bearing mice were anesthetized with 2% isoflurane at 1 h, 2 h, 4 h, and 6 h after injection and were fixed on the imaging bed of a small-animal SPECT/CT imaging system in the prone position. A pinhole collimator was applied. The main parameters were a matrix size of 256 × 256, magnification power of 1.45, and acquisition time at each time point of 10 min.

Row | Substance | radiochemical purity in PBS at 24 h [1] | radiochemical purity in fresh human serum at 24 h [2] | binding fraction to MDA-MB-231 cells (MDA-MB-231 cells; pH 6.0, 180 min, 37 kBq per well, γ counter, B/(B+F) × 100%, mean ± SD) | binding fraction to MDA-MB-231 cells (MDA-MB-231 cells; pH 6.5, 180 min, 37 kBq per well, γ counter, B/(B+F) × 100%, mean ± SD) | binding fraction to MDA-MB-231 cells (MDA-MB-231 cells; pH 7.0, 180 min, 37 kBq per well, γ counter, B/(B+F) × 100%, mean ± SD) | binding fraction to MDA-MB-231 cells (MDA-MB-231 cells; pH 7.4, each time point (30, 60, 90, 120, and 180 min)) | blood clearance (MDA-MB-231 tumors [3]) | tumor/nontumor (T/NT) ratio, trend over time (MDA-MB-231 tumors [3]) | SPECT/CT imaging of tumors (MDA-MB-231 tumors [4]) | binding fraction to MDA-MB-231 cells (MDA-MB-231 cells; all tested pH values (6.0, 6.5, 7.0, and 7.4), each time point (30, 60, 90, 120, and 180 min))
1 | GaGG-GABA-ACEEQNPWARYLEWLFPTETLLLEL-NH2 [^99mTc-pHLIP (Var7)] | > 99% | > 96% | 3.33 ± 0.12% | 3.02 ± 0.04% | 2.87 ± 0.03% | remained low | slow blood clearance | increased over time | clearly imaged at each time point | 
2 | GaGG-GABA-ACEEQNPWARYLKWLFPTKTLLLKL-NH2 [^99mTc-kVar7, technetium-99m-labeled control peptide kVar7, pH-insensitive, with N4 chelating group and GABA spacer, reference compound] | > 99% | > 96% |  |  |  |  | slow blood clearance | no significant increasing trend | not imaged | remained low
